Experimental data: paper doi:10.1101/536094 (bioRxiv, 2019)
Positions count from the first letter of the chain named. “And” between values parts separate entries of the source, which are not always exact repeats. Equal entries are not always repeated.

Experiments:
[1] = target: Chlamydomonas reinhardtii CaMKII hub domain (Chlamydomonas reinhardtii); test: native MS
[2] = target: Chlamydomonas reinhardtii CaMKII hub domain (Chlamydomonas reinhardtii); test: crystal structure
[3] = target: Gonium pectoral CaMKII hub domain (Gonium pectoral); test: native MS
[4] = target: Volvox carteri f. nagarensis CaMKII hub domain (Volvox carteri f. nagarensis); test: native MS
native MS = target: the molecule itself; test: native MS
crystal structure = target: the molecule itself; test: crystal structure

Chlamydomonas reinhardtii CaMKII hub domain (domain or fragment)
stoichiometry N [1]: 18 subunits | stoichiometry N [2]: 18 subunits

Gonium pectoral CaMKII hub domain (domain or fragment)
stoichiometry N [3]: 16 subunits and 18 subunits

Volvox carteri f. nagarensis CaMKII hub domain (domain or fragment)
stoichiometry N [4]: 18 subunits and 20 subunits

B1: wild-type human CaMKII-α hub domain (domain or fragment, UniProt Q9UQM7 345-475, looked up)
chain: VRKQEIIKVTEQLIEAISNGDFESYTKMCDPGMTAFEPEALGNLVEGLDFHRFYFENLWSRNSKPVHTTILNPHIHLMGDESACIAYIRITQYLDAGGIPRTAQSEETRVWHRRDGKWQIVHFHRSGAPSV
stoichiometry N (native MS): 12 subunits and 14 subunits

B2: six-mutant human CaMKII-α hub domain (domain or fragment, UniProt Q9UQM7 345-475, looked up)
chain: B1 chain with T10N, E11Q, T68N, I70M, I120H, F123M
stoichiometry N (native MS): 16 subunits | stoichiometry N (crystal structure): 14 subunits
